From PMC11068555

Columns and labels:
Assay in all cases: native gel or EMSA
[1] = target: Btky72 S Foldon his (sarbecovirus BtKY72 (clade 3) | bacteriophage T4)
[2] = target: Rf1 S Foldon his (prefusion stabilized spike ectodomain) (sarbecovirus Rf1 (clade 2) | bacteriophage T4)
[3] = target: Rs4081 S Foldon his (prefusion stabilized spike ectodomain) (sarbecovirus Rs4081 (clade 2) | bacteriophage T4)
[4] = target: RshSTT200 S Foldon his (prefusion stabilized spike ectodomain) (sarbecovirus RshSTT200 (clade 1b) | bacteriophage T4)
[5] = target: SARS-CoV S Foldon his (prefusion stabilized spike ectodomain) (SARS-CoV (clade 1a) | bacteriophage T4)
[6] = target: Pang17 S Foldon his (prefusion stabilized spike ectodomain) (sarbecovirus Pang17 (clade 1b) | bacteriophage T4)
[7] = target: PRD-0038 S Foldon his (prefusion stabilized spike ectodomain) (sarbecovirus PRD-0038 (clade 3) | bacteriophage T4)
[8] = target: Khosta-2 S Foldon his (prefusion stabilized spike ectodomain) (sarbecovirus Khosta-2 (clade 3) | bacteriophage T4)

Substance: Btky72 S Foldon his (domain or fragment)
- stoichiometry N [1]: 3

Substance: Rf1 S Foldon his (prefusion stabilized spike ectodomain) (domain or fragment)
- stoichiometry N [2]: 3

Substance: Rs4081 S Foldon his (prefusion stabilized spike ectodomain) (domain or fragment)
- stoichiometry N [3]: 3

Substance: RshSTT200 S Foldon his (prefusion stabilized spike ectodomain) (domain or fragment)
- stoichiometry N [4]: 3

Substance: SARS-CoV S Foldon his (prefusion stabilized spike ectodomain) (domain or fragment)
- stoichiometry N [5]: 3

Substance: Pang17 S Foldon his (prefusion stabilized spike ectodomain) (domain or fragment)
- stoichiometry N [6]: 3

Substance: PRD-0038 S Foldon his (prefusion stabilized spike ectodomain) (domain or fragment)
- stoichiometry N [7]: 3

Substance: Khosta-2 S Foldon his (prefusion stabilized spike ectodomain) (domain or fragment)
- stoichiometry N [8]: 3
